T1: parathyroid hormone 1 receptor (PTH1R), C-tagged Citrine (human, UniProt Q03431 27-593)
T1 sequence: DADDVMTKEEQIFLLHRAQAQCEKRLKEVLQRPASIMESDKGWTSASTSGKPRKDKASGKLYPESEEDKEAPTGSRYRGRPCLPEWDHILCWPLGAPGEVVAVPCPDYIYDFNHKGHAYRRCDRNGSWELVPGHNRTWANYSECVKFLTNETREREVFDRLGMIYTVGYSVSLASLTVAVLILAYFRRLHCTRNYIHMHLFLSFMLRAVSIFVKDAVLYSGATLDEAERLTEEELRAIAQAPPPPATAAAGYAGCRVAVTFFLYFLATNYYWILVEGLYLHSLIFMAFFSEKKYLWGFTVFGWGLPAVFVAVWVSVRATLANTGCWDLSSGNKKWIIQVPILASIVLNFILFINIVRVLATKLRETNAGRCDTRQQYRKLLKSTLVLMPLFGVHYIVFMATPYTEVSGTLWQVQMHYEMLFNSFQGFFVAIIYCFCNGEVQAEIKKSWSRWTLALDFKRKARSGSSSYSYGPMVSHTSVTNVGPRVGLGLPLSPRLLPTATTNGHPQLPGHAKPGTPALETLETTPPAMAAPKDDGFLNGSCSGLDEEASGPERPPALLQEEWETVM

B1: receptor activity-modifying protein 2 (RAMP2), C-tagged Cerulean (natural protein)
chain: QPLPTTGTPGSEGGTVKNYETAVQFCWNHYKDQMDPIEKDWCDWAMISRPYSTLRDCLEHFAELFDLGFPNPLAERIIFETHQIHFANCSLVQPTFSDPPEDVLLAMIIAPICLIPFLITLVVWRSKDSEAQA
B2: receptor activity-modifying protein 3 (RAMP3), C-tagged Cerulean (natural protein)
chain: RAGGCNETGMLERLPLCGKAFADMMGKVDVWKWCNLSEFIVYYESFTNCTEMEANVVGCYWPNPLAQGFITGIHRQFFSNCTVDRVHLEDPPDEVLIPLIVIPVVLTVAMAGLVVWRSKRTDTLL

Molecular target: T1, parathyroid hormone 1 receptor (PTH1R), …
Test: FRET or BRET

Row | stoichiometry N | Binder
1 | ~1 RAMP2 per PTH1R | B1
2 | ~2 RAMP3 per PTH1R | B2

From publication doi:10.1101/2024.04.16.588673 (bioRxiv, 2024)
